Holding throughout (conditions): both partners purified
Assay [1] concerns the target T1, calmodulin (full-length mammalian calmodulin, R. norvegicus CALM2) (R. norvegicus, UniProt P0DP30 1-149).
T1 construct: full-length mammalian calmodulin, R. norvegicus CALM2, 100% amino acid identity with H. sapiens CaM, in pET24b; Ca2+-free (apo, 50 µM EGTA) and Ca2+-saturated ((Ca2+)4, 1 mM CaCl2) states are the same molecule; the assays tell them apart; also called CaM; CaM WT; source: E. coli BL21-CodonPlus RIL; for ITC expressed alone and purified (two Phenyl FF columns); for crystals co-expressed and …
Description: ITC; Ca2+-free: CTerm (2–25 µM) in the sample cell, CaM (30–1000 µM) as titrant; 20 mM MOPS, 150 mM NaCl, 1 mM MgCl2, 50 µM EGTA; VP-ITC, single binding site fit, one replicate. For orientation: ITC needs no label: the signal is the heat of the interaction.

Assay [2] addresses T1, calmodulin (full-length mammalian …). Description: ITC; Ca2+-saturating: CTerm (2–25 µM) in the sample cell, CaM, CaM12 or CaM34 (30–1000 µM) as titrant; 20 mM MOPS, 150 mM NaCl, 1 mM MgCl2, 50 µM EGTA with 1 mM CaCl2; VP-ITC, single binding site fit, one replicate.
The target of assay [3] is T2, calmodulin (full-length mammalian, CALM2) (R. norvegicus, UniProt P0DP30 1-149).
T2 construct: Full-length mammalian calmodulin (R. norvegicus CALM2; 100% amino acid identity with H. sapiens CaM), 148 residues; apo CaM and (Ca2+)4-CaM are the same protein without and with 1 mM CaCl2; the two conditions are two assays; also called CaM; WT CaM; source: E. coli BL21-CodonPlus RIL, purified (two Phenyl FF columns)
The assay is described as follows: ITC; CaM species in the syringe, NaV CTerm in the cell; Ca2+-free: 20 mM MOPS, 150 mM NaCl, 1 mM MgCl2, 50 µM EGTA; VP-ITC; fitted to a single binding site per monomer, error of the fit; one replicate.

Assay [4] deals with T2, calmodulin (full-length mammalian, …). Description: ITC; CaM species in the syringe, NaV CTerm in the cell; Ca2+-saturating: 20 mM MOPS, 150 mM NaCl, 1 mM MgCl2, 50 µM EGTA with 1 mM CaCl2; VP-ITC; fitted to a single binding site per monomer, error of the fit; one replicate.

Broadly, the Kd is a measure of binding affinity in units of concentration.

B1: NaV1.4 CTerm Short (residues 1599–1754), freed of CaM for ITC (domain or fragment)
chain: ENFNVATEESSEPLGEDDFEMFYETWEKFDPDATQFIAYSRLSDFVDTLQEPLRIAKPNKIKLITLDLPMVPGDKIHCLDILFALTKEVLGDSGEMDALKQTMEEKFMAANPSKVSYEPITTTLKRKHEEVCAIKIQRAYRRHLLQRSMKQASYMYLTRAAAS
notes: additional 7 residues at the C-terminus of the construct; source: E. coli BL21-CodonPlus RIL, co-expressed with CaM, purified (Glutathione Sepharose; CaM removed by a TFP and Ca2+ wash; eluted with glutathione; 70% pure)
With B1, the Kd in assay [1] stood at 114 nM; in assay [2], 305 nM.

B2: NaV1.4 CTerm Long (residues 1599-1764) (domain or fragment)
chain: ENFNVATEESSEPLGEDDFEMFYETWEKFDPDATQFIAYSRLSDFVDTLQEPLRIAKPNKIKLITLDLPMVPGDKIHCLDILFALTKEVLGDSGEMDALKQTMEEKFMAANPSKVSYEPITTTLKRKHEEVCAIKIQRAYRRHLLQRSMKQASYMYRHSHDGSGDD
notes: The text layer of the ITC plots in D1 (p5, p9); not shown: GST, N-terminal, kept
Regarding B2, the Ka is 5.85e+07 M⁻¹ in assay [3] and 3.63e+06 M⁻¹ in assay [4].

B3: NaV1.4 CTerm Long (residues 1599–1764), freed of CaM for ITC (domain or fragment)
chain: ENFNVATEESSEPLGEDDFEMFYETWEKFDPDATQFIAYSRLSDFVDTLQEPLRIAKPNKIKLITLDLPMVPGDKIHCLDILFALTKEVLGDSGEMDALKQTMEEKFMAANPSKVSYEPITTTLKRKHEEVCAIKIQRAYRRHLLQRSMKQASYMYRHSHDGSGDD
notes: H. sapiens NaV1.4 (SCN4A) C-terminal domain, a.a; the protein may have carried GST in the titrations; source: E. coli BL21-CodonPlus RIL, co-expressed with CaM, purified (Glutathione Sepharose; CaM removed by a TFP and Ca2+ wash; eluted with glutathione; 70% pure)
On to B3, for which the values for the Kd in assay [1] and in assay [2] were 17 nM and 275 nM, respectively.

The values are drawn from paper PMC6447637, “Ca^2+-dependent regulation of sodium channels NaV1.4 and NaV1.5 is controlled by the post-IQ motif” (Nature Communications, 2019).
